Measured values reported in US11999794B2, “Human mesothelin chimeric antigen receptors and uses thereof” (Novartis AG, priority 2013, dated 2024).
“Also recorded” adds a separate entry of the source.

B1: M14: human anti-mesothelin scFv SEQ ID NO: 52; full CAR SEQ ID NO: 76 (protein)
scFv: QVQLVQSGAEVRAPGASVKISCKASGFTFRGYYIHWVRQAPGQGLEWMGIINPSGGSRAYAQKFQGRVTMTRDTSTSTVYMELSSLRSDDTAMYYCARTASCGGDCYYLDYWGQGTLVTVSSGGGGSGGGGSGGGGSGGGGSDIQMTQSPPTLSASVGDRVTITCRASENVNIWLAWYQQKPGKAPKLLIYKSSSLASGVPSRFSGSGSGAEFTLTISSLQPDDFATYYCQQYQSYPLTFGGGTKVDIK
B2: M17: human anti-mesothelin scFv SEQ ID NO: 55; full CAR SEQ ID NO: 79 (protein)
scFv: EVQLVESGGGLVQPGRSLRLSCAASGFTFDDYAMHWVRQAPGKGLEWVSGISWNSGSTGYADSVKGRFTISRDNAKNSLYLQMNSLRAEDTALYYCAKDSSSWYGGGSAFDIWGQGTMVTVSSGGGGSGGGGSGGGGSSSELTQDPAVSVALGQTVRITCQGDSLRSYYASWYQQKPGQAPVLVIYGKNNRPSGIPDRFSGSSSGNTASLTITGAQAEDEADYYCNSRGSSGNHYVFGTGTKVTVL
B3: M12: human anti-mesothelin scFv SEQ ID NO: 50; full CAR SEQ ID NO: 74 (protein)
scFv: QVQLVQSGAEVKKPGASVKVSCKASGYTFTGYYMHWVRQAPGQGLEWMGRINPNSGGTNYAQKFQGRVTMTTDTSTSTAYMELRSLRSDDTAVYYCARTTTSYAFDIWGQGTMVTVSSGGGGSGGGGSGGGGSGGGGSDIQLTQSPSTLSASVGDRVTITCRASQSISTWLAWYQQKPGKAPNLLIYKASTLESGVPSRFSGSGSGTEFTLTISSLQPDDFATYYCQQYNTYSPYTFGQGTKLEIK
B4: M21: human anti-mesothelin scFv SEQ ID NO: 59; CDRs in Tables 4 and 5 (protein)
scFv: QVQLVQSWAEVKKPGASVKVSCKASGYTFTSYYMHWVRQAPGQGLEWMGIINPSGGSTSYAQKFQGRVTMTRDTSTSTVYMELSNLRSEDTAVYYCARSPRVTTGYFDYWGQGTLVTVSSGGGGSGGGGSGGGGSGGGGSDIQLTQSPSTLSASVGDRVTITCRASQSISSWLAWYQQKPGKAPKLLIYKASSLESGVPSRFSGSGSGTEFTLTISSLQPDDFATYYCQQYSSYPLTFGGGTRLEIK

Legend:
[1] = Size exclusion chromatography (oligomerization state of expressed scFvs); type: physicochemical; details: purified scFv
Procedure: Size exclusion chromatography was performed to determine the oligomerization states of the expressed scFvs. 25 μg each was injected onto a TSKGel Super SW3000 4.6 mm×300 mm column (Tosoh Bioscience) heated to 35° C. The scFvs were eluted at 0.3 mL/min in 750 mM arginine, 1 mM EDTA, 20 mM sodium phosphate, 250 mM sodium chloride, pH 7.2; the UV absorbance was monitored at 280 nm.

[2] = target: T1, biotinylated mesothelin ECD (Homo sapiens, UniProt Q13421); experiment: SPR relative epitope binning in comparison to SS1; type: binding; details: 50 nM SS1 captured first, then scFv at 100 nM
T1 construct: made in house; host or cells: HEK293F (transient)
T1 sequence (Q13421 with tags, fused parts or gaps): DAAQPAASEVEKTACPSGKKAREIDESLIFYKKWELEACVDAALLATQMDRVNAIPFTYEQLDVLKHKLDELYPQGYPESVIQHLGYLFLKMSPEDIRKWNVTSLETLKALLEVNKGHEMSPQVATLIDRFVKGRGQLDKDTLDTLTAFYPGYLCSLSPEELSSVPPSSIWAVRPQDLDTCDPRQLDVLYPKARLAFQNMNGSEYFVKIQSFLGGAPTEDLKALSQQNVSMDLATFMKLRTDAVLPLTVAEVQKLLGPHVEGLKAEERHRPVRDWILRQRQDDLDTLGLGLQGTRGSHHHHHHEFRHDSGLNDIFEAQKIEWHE
Procedure: In embodiments, the competition assay is an SPR-based assay. Briefly, the antigen, e.g., human mesothelin, is immobilized on a surface. Through a microflow system, a reference antibody is injected over the antigen layer. Upon binding of the reference antibody to the antigen, an increase in signal, typically expressed in response units (RU) is detected, e.g., reference signal. After a desired time, a test antibody is injected over the antigen layer. If the test antibody binds to a different region or epitope of the antigen, then an additional increase in signal is detected, e.g., a 5% or more, 10% or more, 15% or more, 20% or more, 25% or more, 30% or more, 35%, or more, 40% or more, 45% or more, 50% or more, 55% of more, 60% or more, 65% or more, 70% or more, 75% or more, 80% or more, 85% or more, 90% or more, or 95% or more increase in signal, e.g., RU, as compared to the highest signal detected upon binding of the reference antibody, e.g., the reference signal. If the test antibody binds to the same region or epitope of the antigen, then little or no increase in signal, e.g., RU, will be detected, e.g., less than 20%, less than 15%, less than 10%, less than 5%, less than 4%, less than 3%, less than 2%, or less than 1% increase in signal, e.g., RU, as compared to the highest signal detected upon binding of the reference antibody, e.g., the reference signal. When using this SPR-based competition assay, an antibody is said to compete with the reference antibody when less than 20%, less than 15%, less than 10%, less than 5%, less than 4%, less than 3%, less than 2%, or less than 1% increase in signal, e.g., RU, is detected when compared to the reference signal detected upon binding of the reference antibody to the antigen. An antibody is said to not compete, or compete poorly, with a reference antibody when a 5% or more, 10% or more, 15% or more, 20% or more, 25% or more, 30% or more, 35%, or more, 40% or more, 45% or more, 50% or more, 55% of more, 60% or more, 65% or more, 70% or more, 75% or more, 80% or more, 85% or more, 90% or more, or 95% or more increase in signal, e.g., RU, is detected when compared to the reference signal detected upon binding of the reference antibody to the antigen.
To determine the relative binding epitope of each of the scFvs in comparison to SS1, 50 nM SS1 was captured by biotinylated mesothelin ECD immobilized on a streptavidin sensor chip at a contact time of 180 seconds resulting in a relative density of 70 RU. Purified scFv at 100 nM (M5, M11, M12, M14, M16, M17, M21, or M23) was then immediately injected over the chip to minimize dissociation of the SS1/mesothelin complex. Binding of the secondary scFv was monitored for 270 seconds.

[3] = tested on: Ovcar8; experiment: Ovcar8 xenograft model (Example 8); type: in vivo, NSG mice; details: OVCAR8-mcherry; 10×10^6 T cells, about 4×10^6 CART cells
Procedure: Anti-tumor activity of CART-MSLN was assessed in vivo in an Ovcar8 xenograft model. 10×10^6 Ovcar8 cells were implanted subcutaneously on day 0 in NSG mice. At day 14, 2×10^6 CART cells (CARTs expressing M5, M11, M17, M21, SS1, and CD19, or untransduced cells; 10×10^6 total T cells) in a 100 μl dose was administered intravenously. Mice and tumors were monitored for about 40 days after tumor cell implantation.
A second in vivo xenograft experiment was performed to assess the anti-tumor activity of a second set of CART-MSLN cells. 10×10^6 OVCAR8-mcherry cells were injected into NSG mice. Once tumors were 150-250 mm^2, mice were randomized into treatment groups. CARTs expressing M12, M14, M16, M23, ss1, CD19, or untreated cells were injected at a dose of 10×10^6 T cells in 100 μl. About 40% of T cells were expressing CAR, and therefore at the administered dosage, about 4×10^6 CART cells were delivered to each animal.

[4] = target: T1, biotinylated mesothelin ECD; experiment: Surface plasmon resonance (Biacore T200) binding affinity of purified scFvs; details: for ka / kd: 1:1 Binding fit; for Kd: 1:1 Binding or Steady State Affinity fit
Procedure: Binding affinity of purified scFvs was measured on a Biacore T200 system. Briefly, recombinant human biotinylated mesothelin ECD was immobilized on a streptavidin (SA) sensor chip surface at a density of 150 RU. Purified scFv was injected over the chip under constant flow rate at three-fold serial dilutions. Association and dissociation rates of the protein complex were monitored for 270 seconds and 400 seconds, respectively. Double referencing was performed against a blank immobilized flow cell and a buffer blank. Affinity was determined with a Langmuir 1:1 binding model when possible, for those scFVs where accurate fitting was not possible due to fast on and off rates, the steady state model was used.

[5] = tested on: Ovcar3; experiment: Luciferase-based killing assay; type: cell-based, human
Procedure: The ability for the CART-MSLN to target and kill tumor cells was also assessed in vitro. A luciferase-based assay was used, with tumor cell lines expressing luciferase reporters. Target cells (tumor cells) were plated at 20,000 targets/well. CART-MSLN were added at varying effector:target ratios, from 10:1, 5:1, 2.5:1, and 1:1. The cells were cultured for 20 hours, and the luminescence of each well was detected to determine the percentage of target cells killed. Luciferase-expressing Ovcar3 (ovarian cancer) and U87 mg (glioblastoma) cell lines were used as target cells.

Molecule | % Monomer (SEC) [1] [%] | relative epitope binning against SS1 on human mesothelin [2] | effect on tumor growth, second xenograft experiment [3] | ka [4] [M⁻¹ s⁻¹] | kd [4] [s⁻¹] | Kd [4] [nM] | killing of target tumor cells ([5]; E:T 10:1 to 1:1, 20 hours, FIG. 16A) | specific killing within the panel of human meso CARs ([5]; FIGS. 17A and 17B)
B1 | 74.5 | Competitive binding; also recorded: competitive binders with SS1 | did not have an effect on tumor growth | 2.75e+06 | 0.00251 | 0.9 |  | 
B2 | >98 | Competitive binding; also recorded: competitive binders with SS1 |  | 522000 | 0.0145 | 27.8 | performed similarly well in killing target tumor cells | highest specific killing of Ovcar3 cells
B3 | 70 | Competitive binding; also recorded: competitive binders with SS1 | did not have an effect on tumor growth |  |  | 307 |  | 
B4 | >98 | Competitive binding; also recorded: competitive binders with SS1 |  |  |  | 110 |  | 
